Laboratory results from PMC11328107.

What was measured:
[1] = biological target: proprotein convertase subtilisin/kexin type 9 (PCSK9) (UniProt Q8NBP7)
[2] = biological target: proprotein convertase subtilisin/kexin type 9 (PCSK9) (UniProt Q8NBP7); remark: listed apart in the source
[3] = biological target: His‐tagged PCSK9 of the CircuLex PCSK9‐LDLR in vitro binding assay kit (UniProt Q8NBP7); assay: ELISA; CircuLex PCSK9-LDLR binding kit; LDLR-AB domain immobilised on the plate; His-tagged PCSK9 70 ng/mL alone or preincubated with HFn-Pep2-8 1–280 nM; 2 h; detected by biotinylated anti-His antibody
His‐tagged PCSK9 of the CircuLex PCSK9‐LDLR in vitro binding assay kit, sequence (Q8NBP7 153-692): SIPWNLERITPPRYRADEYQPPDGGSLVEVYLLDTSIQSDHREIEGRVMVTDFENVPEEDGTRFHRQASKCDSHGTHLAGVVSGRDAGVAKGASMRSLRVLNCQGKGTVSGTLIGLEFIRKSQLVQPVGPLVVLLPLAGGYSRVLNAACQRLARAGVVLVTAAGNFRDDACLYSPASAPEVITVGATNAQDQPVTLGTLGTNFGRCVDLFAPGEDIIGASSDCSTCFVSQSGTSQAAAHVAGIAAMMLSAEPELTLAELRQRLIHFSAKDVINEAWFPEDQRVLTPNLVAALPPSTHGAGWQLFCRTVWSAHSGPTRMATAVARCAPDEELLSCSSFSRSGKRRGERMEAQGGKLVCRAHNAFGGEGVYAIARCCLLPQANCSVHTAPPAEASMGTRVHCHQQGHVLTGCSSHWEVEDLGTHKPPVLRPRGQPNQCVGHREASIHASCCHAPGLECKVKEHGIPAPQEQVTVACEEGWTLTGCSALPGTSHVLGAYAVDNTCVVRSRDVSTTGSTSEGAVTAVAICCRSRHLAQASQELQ

[4] = biological target: transferrin receptor 1 (CD71), His‐tagged (UniProt P02786); assay: BLI; Octet N1; His-tagged CD71 immobilised on Ni-NTA tip; HFn-Pep2-8 2.5–1580 nM; PBS with 0.02% Tween 20, 0.1% BSA, 0.05% NaN3; KD from plateau values (steady state)
transferrin receptor 1 (CD71), His‐tagged, sequence (P02786 whole entry): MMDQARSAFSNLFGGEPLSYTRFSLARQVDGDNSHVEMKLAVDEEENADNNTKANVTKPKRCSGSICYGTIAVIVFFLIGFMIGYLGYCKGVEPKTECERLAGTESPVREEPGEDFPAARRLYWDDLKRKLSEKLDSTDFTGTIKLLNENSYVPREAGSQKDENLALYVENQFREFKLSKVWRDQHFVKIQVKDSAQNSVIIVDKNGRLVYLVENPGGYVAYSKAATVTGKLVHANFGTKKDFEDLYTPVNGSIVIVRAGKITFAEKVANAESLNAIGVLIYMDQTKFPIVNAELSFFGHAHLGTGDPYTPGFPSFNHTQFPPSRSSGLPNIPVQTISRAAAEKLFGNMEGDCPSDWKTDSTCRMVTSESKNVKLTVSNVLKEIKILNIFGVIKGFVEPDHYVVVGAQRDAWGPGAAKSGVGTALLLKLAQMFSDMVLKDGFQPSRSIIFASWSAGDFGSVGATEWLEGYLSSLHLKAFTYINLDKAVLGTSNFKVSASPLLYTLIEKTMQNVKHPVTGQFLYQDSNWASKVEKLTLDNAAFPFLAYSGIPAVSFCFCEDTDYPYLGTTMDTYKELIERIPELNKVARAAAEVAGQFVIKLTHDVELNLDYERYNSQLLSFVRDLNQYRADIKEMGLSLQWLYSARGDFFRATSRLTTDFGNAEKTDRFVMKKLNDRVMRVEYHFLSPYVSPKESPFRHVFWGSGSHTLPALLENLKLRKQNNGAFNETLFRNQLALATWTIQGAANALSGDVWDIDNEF

PCSK9 (Homo sapiens) = PCSK9 (Homo sapiens) (UniProt Q8NBP7); details: cited from earlier work
PCSK9 (Homo sapiens), sequence (Q8NBP7 153-692): as the sequence (Q8NBP7 153-692) above

proprotein convertase subtilisin/kexin type 9 (PCSK9), sequence (Q8NBP7 153-692): as above

Which results are given for “HFn‐Pep2‐8 (human H ferritin with Pep2‐8 and a four‐glycine linker fused to the N‐terminus of each subunit) (designed binder)”?
Dil-LDL uptake by HepG2 cells (MFI) with 7 μg/mL PCSK9 plus 0.1 μM (81.12%) or 1 μM HFn-Pep2-8; blocks PCSK9 binding to LDLR [1]: 117%; LDLR at the plasma membrane of HepG2 cells (immunofluorescence, MFI) after 8 h with 7 μg/mL PCSK9 plus 0.1 or 1 μM HFn-Pep2-8; blocks PCSK9 binding to LDLR [2]: 90%; IC50 [3]: 0.0803 µM

Which Kd [4] does the source give for “HFn‐Pep2‐8 (human H ferritin with Pep2‐8 and a four‐glycine linker fused to the N‐terminus of each subunit) (designed binder; other documents disagree on this pair)” here?
Its Kd is 0.027 µM.

With Alirocumab as the substance, how does the Kd (PCSK9 (Homo sapiens)) read?
The Kd was 0.00052 µM.
